Laboratory results from US20170305986A1, “NOVEL TGF-ALPHA MUTANT PROTEINS” (NEUROREPAIR, INC., priority 2014, published 2017).

Tests used:
EGFR [1] = target: T1, EGFR (Homo sapiens, UniProt P00533); assay: Cell based (affinity) ELISA: binding of hTGFα to EGFR on A431 cells; details: compared to wild type hTGFα
T1 construct: A431 cells, which are known to express high levels of EGFR on their surface; host or cells: A431 cells
Method: Binding activity of hTGFα to EGFR was also confirmed by cell based ELISA and FACS analysis using A431 cells, which are known to express high levels of EGFR on their surface. For the cell-based assay, A431 cells (ATCC#CRL1555) were seeded into the wells of a 96 well plate. A 1000 ng/ml solution of human TGFα (hTGFα) was serially diluted (two-fold dilutions), aliquots of each dilution added to the immobilized cells, and the plates incubated to allow binding. (FIG. 3A) After washing, bound hTGFα was detected using biotinylated anti-hTGFα (R&D Systems #BAF239) and Streptavidin conjugated with HRP. TMB was added to each well, the reactions stopped after four minutes, and the samples read as described above in paragraph a). (FIG. 3B) The standard curve was generated using Softmax. (FIG. 3C)
BAP060-hTGFα-B (mature hTGFα, aa 40-89, with PelB signal sequence) wild type and CPE™ mutants were transformed into E. coli BL21 (DE3) competent cells, and recombinant protein expression induced by addition of 1 mM IPTG at 37° C. for 3 hours in 96 well format (1st confirmation) or in 14 ml tubes (2nd confirmation). After three hours, the cells were collected and periplasmic proteins prepared by incubating the cells in OS buffer (200 mM Tris-HCl, pH 7.5, 20% sucrose, 1 mM EDTA) with DNAse, RNAse and lysozyme. After addition of lysis buffer (10 mM Tris, pH 7.5, 50 mM KCl, 1 mM EDTA and 0.1% of Na-deoxycholate) to the cells in OS buffer, the cells were centrifuged and the supernatants, which contained the periplasmic fractions, were transferred to microcentrifuge tubes. The concentration of hTGFα was determined by quantitation ELISA, and 25 ng/ml of hTGFα were incubated with A431 cells (ATCC#CRL1555) immobilized on the plate. Bound hTGFα was detected with biotinylated anti-hTGFα (R&D Systems, #BAF239) and Streptavidin conjugated with HRP. The reactions were stopped by addition of HCl after TMB was added to the wells and read immediately. OD450 nm value of the reactions was measured with a Molecular Device SPECTRAmax. The initial screen identified 94 CPE™ mutants that had 1.5 fold higher binding activity compared to the wild type TGFα in the primary screening. The sequences of these CPE™ mutants are shown below in Table 2, while select characteristics for all of the CPE™ mutants can be found in FIG. 11A.
A first confirmation was performed by re-transforming E. coli BL21 cells with plasmids containing the 94 CPE™ mutants, collected the periplasmic fractions after IPTG induction and performed quantitation ELISA and cell based ELISA. This first confirmation identified 37 CPE™ mutants having a higher binding activity compared to the wild type TGFα . The second confirmation identified 27 CPE™ putative hits that consistently had higher binding activity compared to the wild type TGFα. These 27 CPE™ mutants were then tested in a cell based EGFR phosphorylation assay to confirm the functional activity of the CPE™ mutants. (FIGS. 11B and 12B)
In addition, 15 CPS™ mutants (containing up to 5 mutations) having an increased ability to induce the phosphorylation of EGFR, relative to the wild type hTGFα (FIG. 14), were selected for cell based titration ELISA to confirm their binding activities (FIG. 15). Briefly, BAP060-hTGFα-B (mature hTGFα, aa 40-89, with PelB signal sequence) wild type and CPS™ mutants were transformed into E. coli BL21 (DE3) competent cells. Protein was expressed upon the addition of 1 mM IPTG at 37° C. for 3 hours in 96 well format. Cells were collected after induction and periplasmic proteins prepared by incubating the cells in OS buffer with DNAse, RNAse and lysozyme. Lysis buffer was added to the cells in OS buffer, the cells centrifuged, and the supernatants containing the periplasmic fractions transferred to a clean set of microcentrifuge tubes. Concentration of hTGFα in each sample was determined by quantitation ELISA. […]

[2] = Physical characteristics of mutants (isoelectric point, hydrophobicity); format: physicochemical; details: compared to wild type hTGFα
EGFR [3] = target: T1, EGFR; assay: Cell based EGFR phosphorylation assay in A431 cells; details: compared to wild type hTGFα
Method: A cell based EGFR phosphorylation assay was set up to determine the binding activity of hTGFα to EGFR using a functional assay. A431 cells were seeded in 96 well formats and were serum starved overnight. The cells were washed in serum free media and incubated with 50 ul of 0, 50, 100 or 200 ng/ml of EGF (FIG. 5A, column 1) or hTGFα (FIG. 5A, column 2) in DMEM at 37° C. for 10 min: The cells were then washed with PBS and lysed. Half of the cell lysate were used to determine the level of total EGFR (FIG. 5C) using Cell Signaling kit #7250 and the other half of the cell lysate were used to determined the level of phosphorylated EGFR (FIG. 5B) using Cell Signaling kit #7240 following vendor's protocols.
EGFR phosphorylation. BAP060-hTGFα -B (mature hTGFα, aa 40-89, with PE1B signal sequence) was transformed into E. coli BL21 (DE3) competent cells. […] Half of the cell lysate were used to determine the level of total EGFR using Cell Signaling kit #7250 and the other half of the cell lysate were used to determined the level of phosphorylated EGFR using Cell Signaling kit #7240 following vendor's protocols.
E. coli BL21 cells were transformed with BAP060-hTGFα -B CPS™ mutants and induced with IPTG at 37° C. The periplasmic fractions after IPTG induction were collected and the expression levels of hTGFα determined by quantitation ELISA, as described above. […]

neuronal stem cell = details: ICV or intrastriatal infusion over 18 days, rat brain; cited from earlier work
[4] = test system: central nervous system (CNS); details: peripheral route, animal model of Parkinson's disease; cited from earlier work

Substance	Mutant Characteristics: affinity (EGFR [1])	further results
BAP060-A041D: CPE™ single-substitution mutant of mature hTGFα	Neutral affinity,	Mutant Characteristics: PI (isoelectric point) [2]: lower PI; Mutant Characteristics: hydrophobicity [2]: decreased
BAP060-A046Y: CPE™ single-substitution mutant of mature hTGFα	Increased affinity,	–
BAP060-A050W: CPE™ single-substitution mutant of mature hTGFα	Increased affinity,	–
BAP060-E027L: CPE™ single-substitution mutant of mature hTGFα	Neutral affinity,	–
BAP060-F017L: CPE™ single-substitution mutant of mature hTGFα	Increased affinity,	Mutant Characteristics: P-EGFR induction (EGFR [3]): P-EGFR induction,
BAP060-Q014G: CPE™ single-substitution mutant of mature hTGFα	Increased affinity,	–
BAP060-S036R: CPE™ single-substitution mutant of mature hTGFα	Increased affinity,	–
TGF-α: member of the EGF family that binds the EGF receptor	–	neuronal stem cell proliferation (neuronal stem cell): induced neuronal stem cell proliferation; abnormal motor behavior [4]: ameliorates abnormal motor behavior; neurogenesis of the central nervous system [4]: promotes neurogenesis of the central nervous system (CNS)
